Results from FireProtDB (doi:10.1021/bi00548a004).

B1: Tryptophan synthase alpha chain, P0A877 (parent)
chain: MERYESLFAQLKERKEGAFVPFVTLGDPGIEQSLKIIDTLIEAGADALELGIPFSDPLADGPTIQNATLRAFAAGVTPAQCFEMLALIRQKHPTIPIGLLMYANLVFNKGIDEFYAQCEKVGVDSVLVADVPVEESAPFRQAALRHNVAPIFICPPNADDDLLRQIASYGRGYTYLLSRAGVTGAENRAALPLNHLVAKLKEYNAAPPLQGFGISAPDQVKAAIDAGAAGAISGSAIVKIIEQHINEPEKMLAALKVFVQPMKAATRS

Variants of: B1
Settings: Escherichia coli (strain K12), pH 7.8, Thermal, DSC, Sodium phosphate 1 mM, reversible: yes, structure 1WQ5, whole UniProt chain shown

| Variant | ddG of mutation (higher = less stable) (57.8 °C, EDTA 0.2 mM) | heat capacity change of unfolding (57.8 °C, EDTA 0.2 mM) | Tm | change of melting temperature, mutant - wild type (higher = more stable) | heat capacity change of unfolding | unfolding enthalpy (calorimetric) | unfolding enthalpy (van 't Hoff) |
| --- | --- | --- | --- | --- | --- | --- | --- |
| G211E | -0.6 kcal/mol | 2.7 kcal/mol/K | 59.6 °C | 1.8 °C | 2.7 kcal/mol/K | 109 kcal/mol | 107 kcal/mol |
| G211R | -0.1 kcal/mol | 2.8 kcal/mol/K | 58 °C | 0.2 °C | 2.8 kcal/mol/K | 111 kcal/mol | 113 kcal/mol |
